61 molecules from US20240101959A1, “USE OF IL-2R-BETA-GAMMA AGONIST PEPTIDES IN CELL MANUFACTURING” (MEDIKINE, INC., priority 2022, published 2024) can be followed below.

For the assay, the target named is T1, hu-IL-2Rβ subunit (human, UniProt P14784 27-240, limits assumed).
T1 construct: also called human interleukin-2 receptor subunit β; CD122
T1 sequence (looked up): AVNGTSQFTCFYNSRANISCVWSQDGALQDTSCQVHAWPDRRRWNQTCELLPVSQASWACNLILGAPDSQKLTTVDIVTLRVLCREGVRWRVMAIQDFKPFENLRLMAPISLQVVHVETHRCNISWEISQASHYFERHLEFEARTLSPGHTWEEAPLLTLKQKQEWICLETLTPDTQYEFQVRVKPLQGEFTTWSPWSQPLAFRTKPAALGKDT
Nature of the assay: phage ELISA competition assay. In general terms: ELISA stands for enzyme-linked immunosorbent assay.

Positions of bridges follow the written chain, without caps; N, C: chain ends. No end group written: not given here. Some results are limits rather than exact numbers.

As usually defined, the IC50 is the concentration at which inhibition is half-maximal. Higher therefore signals lower potency. WYPCWIAQLGELCDLDAKGQRR [SEQ ID NO 337] registered a half-maximal inhibitory concentration (IC50) of under 100 µM.

Molecule WYPCWIARVGELCDLEEGPVNR [SEQ ID NO 339] showed an IC50 of under 100 µM.

For the molecule AYRIYPCWKAQLGELCDLDNAD [SEQ ID NO 239], the IC50 is under 100 µM.

On to AHWSQPCWTAQLGELCDLDMGD [SEQ ID NO 245], for which the IC50 was under 100 µM.

Take WDGWECGMDHDGWVCEFWGE [SEQ ID NO 253]: the IC50 is under 100 µM.

As for MGTGWQNYCRYAQLGELCLL [SEQ ID NO 250], the half-maximal inhibitory concentration (IC50) was under 100 µM.

As to SRFWQPCWMAQLGELCHLDPQM [SEQ ID NO 242], the IC50 is under 100 µM.

With WRRWYPCWMAQLGELCDLDQWT [SEQ ID NO 237], the IC50 was under 100 µM.

FFPCWMGQLGDLCDLEVRSMQK [SEQ ID NO 230] returned an IC50 of under 100 µM.

With MGSWLPCWMAQLGDLCDVEGGM [SEQ ID NO 234], the concentration for half-maximal inhibition (IC50) is under 100 µM.

In turn, WYPCWIARVGELCDME (disulfide 4-13 (inferred)) [SEQ ID NO 342] had an IC50 of under 100 µM.

WYPCWIARVGELCDLE [SEQ ID NO 553] showed an IC50 of under 100 µM.

With WYPCGVAQPGDLCDLE [SEQ ID NO 251], the half-maximal inhibitory concentration (IC50) was under 100 µM.

SKPCWLAQLGDLCDFDWTAADH [SEQ ID NO 224]: the IC50 is under 100 µM.

Consider TGWWYPCWMAQLGELCDLQQT (disulfide 7-16 (inferred)) [SEQ ID NO 248], for which the IC50 was under 100 µM.

Turning to WKPCWMAALGELCDLERSVGKV [SEQ ID NO 228], the concentration for half-maximal inhibition (IC50) is under 100 µM.

For the molecule TNNFYPCWLAKLGDLCDFDDLN (disulfide 7-16 (inferred)) [SEQ ID NO 338], the half-maximal inhibitory concentration (IC50) is under 100 µM.

As for WYSCGKAQLGELCDLDVESQPG [SEQ ID NO 222], the 50% inhibitory concentration (IC50) is under 100 µM.

In the case of DLWQPCWMARLGELCDLKG [SEQ ID NO 249], the IC50 was under 100 µM.

RREWYPCWIAQVGELCDLPLI [SEQ ID NO 343] registered an IC50 of under 100 µM.

QPAWLPCWLAQLGELCDLGTGA [SEQ ID NO 241]: the IC50 was under 100 µM.

As to MLGEWLCEMDQLGYLCYLDHGD [SEQ ID NO 252], the IC50 was under 100 µM.

Turning to WFPCWMAQLGDLCELEPDSVPA [SEQ ID NO 225], the concentration for half-maximal inhibition (IC50) is under 100 µM.

On to YVPCYMARLGELCELEANRPGQ [SEQ ID NO 223], for which the IC50 was under 100 µM.

The molecule YLNFNPCWTAQLGELCDLASGE [SEQ ID NO 243] showed an IC50 of under 100 µM.

With WTPCWIAHLGDLCDLEPQDDTD [SEQ ID NO 226], the IC50 is under 100 µM.

For the molecule QKGFLPCWRAQLGQLCDMESQY [SEQ ID NO 235], the concentration for half-maximal inhibition (IC50) is under 100 µM.

As for WYPCWMAQLGELCDHEWPSYGA [SEQ ID NO 233], the concentration for half-maximal inhibition (IC50) was under 100 µM.

Take WLPCWIASLGELCDLDTGKRQG [SEQ ID NO 95]: the concentration for half-maximal inhibition (IC50) was under 100 µM.

Regarding AGDWLPCWMAELGELCDLEGPT [SEQ ID NO 94], the IC50 is under 100 µM.

HPVRYPCWVAQLGELCDLENGN [SEQ ID NO 246] came in with an IC50 of under 100 µM.

In the case of QTGSYPCWIAHLGELCDLEGSA [SEQ ID NO 247], the 50% inhibitory concentration (IC50) is under 100 µM.

GSGWQPCWMADLGELCDLDNEK [SEQ ID NO 236] came in with an IC50 of under 100 µM.

The molecule QRNSFPCWLAQLGDLCDLGDWA [SEQ ID NO 240] had an IC50 of under 100 µM.

For WYPCYMASLGELCDLQSSISPR [SEQ ID NO 232], the IC50 was under 100 µM.

As to YWPCSMASLGELCDLEWQGRLP [SEQ ID NO 231], the 50% inhibitory concentration (IC50) was under 100 µM.

For STGWYPCWIAEFGELCDLVKPH [SEQ ID NO 244], the IC50 was under 100 µM.

As for WKPCWRAQLGELCDLELGPSER [SEQ ID NO 229], the IC50 was under 100 µM.

In turn, RRSWYPCRIAQLGELCDLDPRV (disulfide 7-16 (inferred)) [SEQ ID NO 238] registered a concentration for half-maximal inhibition (IC50) of under 100 µM.

For WYPCWMAQLGELCDLQTMGYSH [SEQ ID NO 93], the half-inhibitory concentration (IC50) is under 100 µM.

AVEFYPCWLARIGELCDLVEP [SEQ ID NO 340]: the IC50 is under 100 µM.

The molecule WKPCFIASLGELCDLDQGSVEV [SEQ ID NO 227] had an IC50 of under 100 µM.

WYPCWLAQLGDLCDLD [SEQ ID NO 87] returned an IC50 of under 100 µM.

WYPCWLAQLGELCDLD [SEQ ID NO 130] returned a concentration for half-maximal inhibition (IC50) of under 100 µM.

On to WHPCWIAQLGELCDLE [SEQ ID NO 147], for which the half-maximal inhibitory concentration (IC50) is under 100 µM.

Turning to WYPCWIAKLGELCDLE [SEQ ID NO 142], the concentration for half-maximal inhibition (IC50) was under 100 µM.

Regarding WYPCWLAQLGELCDLD [SEQ ID NO 361], the IC50 was under 100 µM.

Regarding WYPCWMARMGELCDLE [SEQ ID NO 384], the IC50 was under 100 µM.

Molecule WYPCWIAHLGELCDLE [SEQ ID NO 341] had an IC50 of under 100 µM.

The molecule WYPCWVAKLGELCDLE [SEQ ID NO 472] gave an IC50 of under 100 µM.

WHPCWIAHLGELCDLE [SEQ ID NO 388] registered a concentration for half-maximal inhibition (IC50) of under 100 µM.

WYPCWLAHLGELCDLE [SEQ ID NO 369] showed an IC50 of under 100 µM.

In turn, WYPCWMARLGELCDLE [SEQ ID NO 137] gave an IC50 of under 100 µM.

In turn, WYPCWLAHLGELCDLA [SEQ ID NO 395] gave a half-inhibitory concentration (IC50) of under 100 µM.

For the molecule RYPCWIAQLGELCDLD [SEQ ID NO 387], the IC50 is under 100 µM.

As for WYPCWVAQLGELCDLE [SEQ ID NO 462], the IC50 was under 100 µM.

In turn, WYPCWIAQLGELCDLE [SEQ ID NO 148] registered an IC50 of under 100 µM.

WYPCWMAHLGELCDLE [SEQ ID NO 474] displayed an IC50 of under 100 µM.

In turn, WYPCWLAQVGELCDLD [SEQ ID NO 554] gave a concentration for half-maximal inhibition (IC50) of under 100 µM.

WYPCWMAQLGELCDMD (disulfide 4-13 (inferred)) [SEQ ID NO 376] displayed a half-maximal inhibitory concentration (IC50) of under 100 µM.

Regarding WYPCWIAQLGELCDLV [SEQ ID NO 352], the IC50 was under 100 µM.
